experiment: soluble on expression in E. coli; label from the status in PepcDB or PDB records

Which “soluble on expression in E. coli” value does the source give for “MNNKNLALKAPLSGPVMPLNRVPDPVFSSGTLGEGIAIDPLNDCLHAPCAGLVSHLARTRHALSLRADNGAELLLHVGLDTVQLQGEGFEALVEEGARVIEGQPLLRFDLDRVARGSRSLITVMILTNGDGFQVRPLTTNPVEVGAPLLQLSPEKAEQRPANPAPGEGSAQRQVRGRARVAHHGGLHARPAALLRKTAQGFSSQAELHFAGQVASVDSLVGIMGLGVAEQDEVEVICRGEDSEAALGALLAALASATAGAPKDAPRAIAPGEPARPAAVAGTLAGVCASPGLASGPLARLGAISLPADDGRHRPEEQHLALDQALQRVRDDVQGSLQQARLGGDENEAAIFSAHLALLEDPGLLDAADMLIDQGVGAAHAWHRAIQAQCEILQALGNLLLAERANDLRDLEKRVLRVLLGDTAPLRVPAGAIVAAREITPSDLAPLVDAGAAGLCMAEGGATSHVAILARSKGLPCLVALGAGLLELEEGRQVVLDAGQGRLELSPDARRLEQVALQVAQREEQRRRQQADAQREALTRDGRRIEIGANVASPREAAEAFANGADGVGLLRTEFLFLERRAAPDEEEQRNAYQEVLDAMGQRKVIIRTIDVGGDKHLDYLPLPVEENPALGLRGIHLGQARPELLDQQLRALLRVEPLERCRILLPMVSEVDELRAIRRRLGELATQLGIERLPELGVMIEVPSAALLADQLAEHADFLSIGTNDLSQYALAMDRCHAGLADRIDALHPALLRLIAQTCAGAARHGRWVGVCGALASDPLATPVLVGLGVEELSVGPNLVGEIKTRVRQLDAAECRRHAQALLDLGSARAVRDACLQ” here?
The value was “not soluble”.

Which “soluble on expression in E. coli” value does the source give for “MNNQKQQKPTLSGQRFKTRKRDEKERFDPTQFQDCIIQGLTETGTDLEAVAKFLDASGAKLDYRRYAETLFDILVAGGMLAPGGTLADDMMRTDVCVFAAQEDLETMQAFAQVFNKLIRRYKYLEKGFEDEVKKLLLFLKGFSESERNKLAMLTGVLLANGTLNASILNSLYNENLVKEGVSAAFAVKLFKSWINEKDINAVAASLRKVSMDNRLMELFPANKQSVEHFTKYFTEAGLKELSEYVRNQQTIGARKELQKELQEQMSRGDPFKDIILYVKEEMKKNNIPEPVVIGIVWSSVMSTVEWNKKEELVAEQAIKHLKQYSPLLAAFTTQGQSELTLLLKIQEYCYDNIHFMKAFQKIVVLFYKAEVLSEEPILKWYKDAHVAKGKSVFLEQMKKFVEWLKNAEEESESEAEEGD” here?
The value was “soluble”.

With “MNNQTMTFTPEQLRKHAQEMLRHAEQLEKTGITKDAIRKDMVPALRELMQAKHRAQKAVDELVDCVAELETRVGKFEKLVQEALR” as the sequence, how does the “soluble on expression in E. coli” value read?
Its value is “not soluble”.

For “MNNVSEERVAEMIWDAVSEGATLKDVHGIPQDMMDGLYAHAYEFYNQGRLDEAETFFRFLCIYDFYNPDYTMGLAAVCQLKKQFQKACDLYAVAFTLLKNDYRPVFFTGQCQLLMRKAAKARQCFELVNERTEDESLRAKALVYLEALKTAETEQHSEQEKELEHHHHHH”, which “soluble on expression in E. coli” value is on record?
Its value is “soluble”.

Which “soluble on expression in E. coli” value does the source give for “MNNYDDLPCSIYFKKPTVQEFVDQPRVFEDSEVPAFQEVLQLPQERTKPPVPSTQPIVAAVEVAKKKSCLSAPKPRKEPPSHPALRQKTVAFGKTVNVSQTVEGTSRNSKKVLASTMSAQNTTTTEEQAAENWRDAMKTELQTIRTEIQEETARRQEELNAQNLVKMQELMSNFFQKITIPKQQAIEPVEKDKENFHESPRQSRQQKPASKIASAREVIKRDGVIPPEALTIIEQRLRSDPMFRQQIDNVLADAECDANRAAYSPPPPMSEVRYGSGVNPALMRETLTVERSIRYDNGLASIDSRQWTNERRDNRAPDSYRTYEPDQPCHSLYQKGQSISYYPSEAAGKTTARNNRTGYYVEDSSDHEEDVVVNKRGQNYHEQAVPETPAERERRIREKYARRK” here?
Its value is “not soluble”.

With “MNPDKTVLSCHNPEWRGERPAPSLIARCAQLAMLLEVSASPKPGNVDREHNYPDTCFEHFVASSVAVYPVFELAAKSTGRIGQLLRSAVYESSAWQQGGNTHFGAFLLLIPLAMAAGEISREQGEQPGCGKTFFRIEAEEFENLASHAHAFVRETDCEDAVEFYRAFGHAGVRVNSVEEFDLEDPEATSDLRNQNITLYSLMEIAKGYDLIANEWTSGFGRCLEGAKIILDFMDARNCREEALAGGSVSICSGTGINEAVVYTFLKLLSKHRDTFIQTKFDAETADYVSSRAGEVLSGWEISGKKAGDFASILPRIQEFDSELLDKRINPGSTADIIIAALFIALLGGLRF” as the sequence, how does the “soluble on expression in E. coli” value read?
The value was “not soluble”.

With “MNPERSERIEIPVLPLRDVVVYPHMVIPLFVGREKSIRCLEAAMDHDKKIMLVAQKEASTDEPGVNDLFTVGTVASILQMLKLPDGTVKVLVEGLQRARISALSDNGEHFSAKAEYLESPTIDEREQEVLVRTAISQFEGYIKLNKKIPPEVLTSLNSIDDPARLADTIAAHMPLKLADKQSVLEMSDVNERLEYLMAMMESEIDLLQVEKRIRNRVKKQMEKSQREYYLNEQMKAIQKELGEMDDAPDENEALKRKIDAAKMPKEAKEKAEAELQKLKMMSPMSAEATVVRGYIDWMVQVPWNARSKVKKDLRQAQEILDTDHYGLERVKDRILEYLAVQSRVNKIKGPILCLVGPPGVGKTSLGQSIAKATGRKYVRMALGGVRDEAEIRGHRRTYIGSMPGKLIQKMAKVGVKNPLFLLDEIDKMSSDMRGDPASALLEVLDPEQNVAFSDHYLEVDYDLSDVMFVATSNSMNIPAPLLDRMEVIRLSGYTEDEKLNIAKRHLLPKQIERNALKKGELTVDDSAIIGIIRYYTREAGVRGLEREISKLCRKAVKQLLLDKSLKHIEINGDNLHDYLGVQRFDYGRADNENRVGQVTGLAWTEVGGDLLTIETACVPGKGKLTYTGSLGEVMQESIQAALTVVRARAEKLGINPDFYEKRDIHVHVPEGATPKDGPSAGIAMCTALVSCLTGNPVRADVAMTGEITLRGQVLPIGGLKEKLLAAHRGGIKTVLIPFENKRDLEEIPDNVIADLDIHPVKRIEEVLTLALQNEPSGMQVVTAK” as the sequence, how does the “soluble on expression in E. coli” value read?
The value was “not soluble”.

Which “soluble on expression in E. coli” value does the source give for “MNPIEIIDKFYPQDTEQRHILLIHSLSVAQKALKIVDAHPNLPINRSFVREAALLHDIGIFMTDAPTIQCFGEHPYIAHGYLGADLLRKEGFERHALVCERHTGAGLTLEEIIERQLPVPHREMVPVTLEEQIICFADKFFSKTHLDEEKTVEKARKSIAKYGEEGLNRFDGWCSLFL” here?
The value was “not soluble”.

Which “soluble on expression in E. coli” value does the source give for “MNPNPNVKYPIEGNQNVHFIKNTITKANILVGDYSYYDAKDGETFEDRVLHHYEFLGDRLIIGKFCCIASGVTFIMNGANHRMDGFSAYPFNIFGNGWEKYTPNLSDLPYKGDTVIGNDVWIGMDATIMPGIKIGDGAIIAAKSVVTRDVAPYTIVGGNPANKIRERFSNAIIEELLQIQWWHFDIEKITENIGAIVQGNIEPLRKLKRE” here?
The value was “not soluble”.

With “MNPSLENLQLYPFQKLTKLFEDLVPRDSLPTPIGLHIGEPRHSTPEFIRQELINSLEGLAHYPTVLGTDRLRASIATWLTQRYHLSSIDPDTEVIPVNGSREALFSFAQAVIDTDHKAIQPAVVCQNPFYQIYEGAALLAGATPYFLNQLPENNFSADTAQLPDTVWERTQLVYICSPNNPTGKVLTLDEWKHLFDLSDRYGFVIAADECYSEIYFDEGHPPLGALEAAEKLGRSGFPRLVVFSSLSKRSNVPGMRSGFVAGDATILRKFLLYRTYHGSAMNPAVQAASTVAWSDEQHVAENRKLYYEKFTGAMHILGDTLPVSMPDAGFYLWLRTPVSGIEFSRRLYREGNVTVLPGSYLAREAHGMDPGEDFVRIALVAPVVECMEAMERIRDIARKF” as the sequence, how does the “soluble on expression in E. coli” value read?
The value was “not soluble”.

For “MNPSPSIAGLSDIEALERVPLEQRDLPSSTYELLQRSARRHGQRIALSCLLHGSAAEEPLRISYAELFARVTQTANALHRLGLESHQAVSFLLPNLPQTHYVIWGGEAAGIVNAINPLLEPEHIAELIRASNTRVLVTLAPFPGTDLWQKVAGLRAQLPELYAIVVVDPANLLPAPQREALKAQRGPLPEGVLDFDTLIADCPADRLESGRAIHPDDVASYFHTGGTTGTPKLAPHSHFNEVAMAEIMGLNADYGVDDVLLCGLPLFHVNGVMVTGLAPFHRGAQVLLAGPQGYRNPTLIQDFWKLVERYRVTSFSGVPTIYAALLQVPSDGRDLSSLRFALCGAAPMPVELIRQFEARTGLKVIEGYGLTEGTCGTSCNPRGGERRPGSIGLRLPYCQVKVAVLDGEGNYLRDAAPNEVGNLCLKGPTVFKGYLQQDRNRDIWIGDGWFNTGDLGRIDEDGYIWLTGRSKDLIIRGGHNIDPQMIEEALHRHPAVALAAAVGKPDAKAGELPVAYIQLKPGASASEEELLEHASRHVPERAAVPKDIWLIESMPVTAVGKTFKPALRLDAIRRVLEEESRRIAEDIRVEVVADERHGQLAHLHVPALDERRQAALEELLGGYALNYRL”, which “soluble on expression in E. coli” value is on record?
Its value is “not soluble”.

For “MNPTNYDPRIGQPAQSRPQVSLSMGRRIVQMPTGLPRSYQDESHNEPVGWDEPSGVGGSSGAGGQQSDKPTGLRHFSTKVCEKVKEKGLTNYNEVADELVADYFQNNLIKQIDVVKQEYDMKNIRRRVYDALNVLLAMNIITKSKKDIRWIGLPASASQEISRLEEEKSRREASISSKKQALEEMVLQIVSYKNLVERNRKNEHKNGRPENDTVLHLPFLIINTDKEANVECSVSSDKSEFLFSFDKKFEIHDDFEILKKLNLACSLETTNPTAEEVKTAKSFLPTLHQHYVDEIIANRKKVEAEKEEKRKQQQLIADQMSMNLSQAQYVEPTSSLAQMSYSSRFNRQLQEHLINDGSEDRSAAAGIMERDYDMDKNVNQGSASRGPMYNTYSPQKIRAQVNTPLQVPPVTKRYYVQKTQGPMKHDMTPVVRTVNRPYSTVPPDRRLSTGATSVNSGPVKYYVPQGHQPMHQPVGQRYRVRPQQPQMSHMGQPHQVQQRVVYPAGSISGHQLQPGQRIVTQRIVAPGGPHPPGTIVRKVIRKIVVNNPKQSPAQQVIQKKMMEQDMCTFERKTEQPMTSAQAAALIQHPQPEEYDYFQ”, which “soluble on expression in E. coli” value is on record?
Its value is “not soluble”.

With “MNQAIQFPDREEWDENKKCVCFPALVNGMQLTCAISGESLAYRFTGDTPEQWLASFRQHRWDLEEEAENLIQEQSEDDQGWVWLP” as the sequence, how does the “soluble on expression in E. coli” value read?
The value was “not soluble”.

With “MNQHLLGNPKLTVTHVNEVKAGINHIVVDSVQYGNQEMIMEKDGTVEMRDGEKLYINIFRPNKDGKFPVVMSADTYGKDNKPKITNMGALWPTLGTIPTSSFTPEESPDPGFWVPNDYVVVKVALRGSDKSKGVLSPWSKREAEDYYEVIEWAANQSWSNGNIGTNGVSYLAVTQWWVASLNPPHLKAMIPWEGLNDMYREVAFHGGIPDTGFYRFWTQGIFARWTDNPNIEDLIQAQQEHPLFDDFWKQRQVPLSQIKTPLLTCASWSTQGLHNRGSFEGFKQAASEEKWLYVHGRKEWESYYARENLERQKSFFDFYLKEENNDWKDTPHVIYEVRDQFYKGEFKSASAFPLPNAEYTPLYLNAENHTLNHAKISSAHVAQYDSEDKQQDVSFKYTFDKDTELVGNMNLKLWVSTKDSDDMDLFAGIKKLDRRGNEVNFPDFNHIENGQVATGWLRVSHRELDQEKSSIAQPWHKHETELKLSQDEIVPVEIELLPSGTLFKQGETLEVVVKGSEIVIGNSTPGMKTRYEHEETVNKGMHMIYTGGKYDSQLIIPIVN” as the sequence, how does the “soluble on expression in E. coli” value read?
Its value is “soluble”.

For “MNQHNTRLIRLPEVLHRTGYGKAWIYHLINQNRFPSPVKIGARSVAFIESEVDEWIQLTIENSRKHVA”, which “soluble on expression in E. coli” value is on record?
Its value is “soluble”.

Which “soluble on expression in E. coli” value does the source give for “MNQLNWKDVTPSFEQYEDILKSASSLPKKKFVELQPRLLATVERFKKIKGLTRVLVINCADNTVYRKFICDVVTDGLEPTIMTESLDAKLLFDRYSVDLKGDVVVEAGLLSKAN” here?
Its value is “not soluble”.

Which “soluble on expression in E. coli” value does the source give for “MNQWRVIHNKSYEGAMNMAIDEAIFTAYKKGHNKPTLRFYTWEPACLSIGYFQKLEDEIDLDKCRCMNIDYTRRITGGRAVLHDNELTYSIIIGEDNPLIDKSINLSYRYISEGLVKGLNLSGIETDNLNRGERISRENLSAACFNAHASYEVTINNKKVIGSAQSRKDGVLLQHGSIILDFDVEKLFKLIKTKTPELKERAMKFTAKKASGIENEIGRKIDIDILQKNIVKGLAEQFNVEFVEGDLTDYEKQLVKELYEKYKNEEYN” here?
The value was “not soluble”.

— the DeepSol protein solubility set
